Results on four molecules are retold here after patent US20100297093A1.

Like-named read-outs stand apart in the source and are kept apart here.

In test [1] the target is MART-1:27-35 peptide presented by HLA-A2 on target cells (UniProt Q16655). As to the kind of experiment: cell-based or functional assay.
In test [2] the target is MART-1 peptide on HLA-A*02:01 (human). As to the kind of experiment: peptide titration, transfected CD4+ T cells, peptide-pulsed target cells; upper bound 100 fold; minimal effect in CD8+ T cells; full-length, on cells.
In test [3] the target is MART-1:27-35 peptide presented by HLA-A2 on target cells (UniProt Q16655). As to the kind of experiment: cell-based or functional assay. This is another data set of the same source.

DMF4 TCR, WT α + β51:A (G51A): in test [1], the IFN-γ; CD4+ T; 624.38 is 15800 pg/mL, the IFN-γ; CD4+ T; 1300 was 11200 pg/mL, the IFN-γ; CD8+ T; 624.38 was 32800 pg/mL and the IFN-γ; CD8+ T; 1300 worked out at 78000 pg/mL. The molecule further had a peptide titration; CD4+ T; fold lower MART-1:27-35 concentration recognized vs WT DMF4 in test [1] of 10 to 100 fold.

For DMF4 β51:A, the fold lower peptide concentration recognised than with the WT TCR in test [2] is over 10 fold.

With “DMF4 anti-MART-1 TCR, wild type α and β chains”, in test [1], the IFN-γ; CD4+ T; 624.38 was found to be 3220 pg/mL, the IFN-γ; CD4+ T; 1300 is 3480 pg/mL, the IFN-γ; CD8+ T; 624.38 is 47700 pg/mL and the IFN-γ; CD8+ T; 1300 amounted to 32800 pg/mL.

B1: DMF4 TCR, αLA (T93L/G94A) + WT β (TCR, part only; not given: wild type beta chain, part only)
TCR alpha: GQQLNQSPQSMFIQEGEDVSMNCTSSSIFNTWLWYKQDPGEGPVLLIALYKAGELTSNGRLTAQFGITRKDSFLNISASIPSDVGIYFCAGGLANQFYFGTGTSLTVIPNIQNPDPAVYQLRDSKSSDKSVCLFTDFDSQTNVSQSKDSDVYITDKTVLDMRSMDFKSNSAVAWSNKSDFACANAFNNSIIPEDTFFPSPESSCDVKLVEKSFETDTNLNFQNLSVIGFRILLLKVAGFNLLMTLRLWSS
For B1, in test [3], the IFN-γ; CD4+ T; 624.38 amounted to 20400 pg/mL, the IFN-γ; CD4+ T; 1300 was 11100 pg/mL, the IFN-γ; CD8+ T; 624.38 was 36400 pg/mL and the IFN-γ; CD8+ T; 1300 came to 91800 pg/mL.
